Series [1] has as its system HeLa Kyoto. Put plainly: solubility in G1/S (NP-40 vs SDS abundance) (log2 ratio); higher = more soluble. To be noted: cell cycle stage: G1/S.
Series [2] has as its system HeLa Kyoto. Put plainly: melting temperature (median over replicates), in situ; higher = more thermally stable.
For series [3], the system named is HeLa Kyoto. Put plainly: solubility change mitosis vs G1/S (difference of NP-40 vs SDS log2 ratios) (log2 ratio difference); higher = more soluble in mitosis.
The test system of series [4] is HeLa Kyoto. Put plainly: thermal stability score vs G1/S (z-score of summed log2 fold changes over temperatures); higher = more thermally stable than in G1/S.
The mark [5] stands for this setting: cell cycle stage: early G1 (4.5 h after nocodazole release).
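Wherever melting temperature (median over replicates), in situ is given: HeLa Kyoto cells synchronized by double thymidine or nocodazole block, proteins quantified by TMT10plex mass spectrometry, three independent biological replicates.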
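Wherever solubility change mitosis vs G1/S (difference of NP-40 vs SDS log2 ratios) is given: synchronized HeLa Kyoto cells (double thymidine block for G1/S, nocodazole release for mitosis), protein amounts in NP-40 versus SDS lysates quantified by mass spectrometry, three biological replicates.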
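Wherever solubility in G1/S (NP-40 vs SDS abundance) is given: HeLa Kyoto cells arrested at G1/S by double thymidine block, proteins quantified by TMT10plex mass spectrometry in mild NP-40 versus SDS extracts, three biological replicates.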
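Wherever thermal stability score vs G1/S (z-score of summed log2 fold changes over temperatures) is given: synchronized HeLa Kyoto cells, proteins quantified by TMT10plex mass spectrometry, three biological replicates, mitosis taken 0.5 h after nocodazole release, G1/S directly after double thymidine block.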

Regarding “MPGSAAKGSELSERIESFVETLKRGGGPRSSEEMARETLGLLRQIITDHRWSNAGELMELIRREGRRMTAAQPSETTVGNMVRRVLKIIREEYGRLHGRSDESDQQESLHKLLTSGGLNEDFSFHYAQLQSNIIEAINELLVELEGTMENIAAQALEHIHSNEVIMTIGFSRTVEAFLKEAARKRKFHVIVAECAPFCQGHEMAVNLSKAGIETTVMTDAAIFAVMSRVNKVIIGTKTILANGALRAVTGTHTLALAAKHHSTPLIVCAPMFKLSPQFPNEEDSFHKFVAPEEVLPFTEGDILEKVSVHCPVFDYVPPELITLFISNIGGNAPSYIYRLMSELYHPDDHVL [EIF2B2]”, in the series on HeLa Kyoto [1], the “solubility in G1/S (log2)” value turned out to be 0.101. In addition, the melting temperature stood at 51.4 °C with HeLa Kyoto [2] (cell cycle stage: G1/S) and 50.5 °C in the series with HeLa Kyoto [2] (cell cycle stage: mitosis). In addition, the “solubility change mitosis (log2)” value with HeLa Kyoto [3] is -0.191. In addition, the thermal stability score in the series on HeLa Kyoto [4] (setting [5]) worked out at 1.74; in the series on HeLa Kyoto [4] (cell cycle stage: mitosis), 0.854.

On to “MPHLENVVLCRESQVSILQSLFGERHHFSFPSIFIYGHTASGKTYVTQTLLKTLELPHVFVNCVECFTLRLLLEQILNKLNHLSSSEDGCSTEITCETFNDFVRLFKQVTTAENLKDQTVYIVLDKAEYLRDMEANLLPGFLRLQELADRNVTVLFLSEIVWEKFRPNTGCFEPFVLYFPDYSIGNLQKILSHDHPPEYSADFYAAYINILLGVFYTVCRDLKELRHLAVLNFPKYCEPVVKGEASERDTRKLWRNIEPHLKKAMQTVYLREISSSQWEKLQKDDTDPGQLKGLSAHTHVELPYYSKFILIAAYLASYNPARTDKRFFLKHHGKIKKTNFLKKHEKTSNHLLGPKPFPLDRLLAILYSIVDSRVAPTANIFSQITSLVTLQLLTLVGHDDQLDGPKYKCTVSLDFIRAIARTVNFDIIKYLYDFL [ORC5]”, for which the “solubility in G1/S (log2)” value with HeLa Kyoto [1] is -0.362. The melting temperature with HeLa Kyoto [2] (cell cycle stage: G1/S) is 47.1 °C; in the series with HeLa Kyoto [2] (cell cycle stage: mitosis), 49 °C. Moreover, the “solubility change mitosis (log2)” value in the series on HeLa Kyoto [3] was -0.126. The thermal stability score in the series on HeLa Kyoto [4] (setting [5]) was found to be 0.957; with HeLa Kyoto [4] (cell cycle stage: mitosis) it was 1.24.

For the sequence “MPKAKGKTRRQKFGYSVNRKRLNRNARRKAAPRIECSHIRHAWDHAKSVRQNLAEMGLAVDPNRAVPLRKRKVKAMEVDIEERPKELVRKPYVLNDLEAEASLPEKKGNTLSRDLIDYVRYMVENHGEDYKAMARDEKNYYQDTPKQIRSKINVYKRFYPAEWQDFLDSLQKRKMEVE [NOP16]”, the “solubility in G1/S (log2)” value with HeLa Kyoto [1] was -1.15. The melting temperature is 57.3 °C in the series on HeLa Kyoto [2] (cell cycle stage: G1/S) and 54.2 °C with HeLa Kyoto [2] (cell cycle stage: mitosis). In addition, the “solubility change mitosis (log2)” value in the series on HeLa Kyoto [3] was 1.22. The thermal stability score in the series on HeLa Kyoto [4] (setting [5]) was -0.631; in the series on HeLa Kyoto [4] (cell cycle stage: mitosis) it was -6.32.

“MPLELELCPGRWVGGQHPCFIIAEIGQNHQGDLDVAKRMIRMAKECGADCAKFQKSELEFKFNRKALERPYTSKHSWGKTYGEHKRHLEFSHDQYRELQRYAEEVGIFFTASGMDEMAVEFLHELNVPFFKVGSGDTNNFPYLEKTAKKGRPMVISSGMQSMDTMKQVYQIVKPLNPNFCFLQCTSAYPLQPEDVNLRVISEYQKLFPDIPIGYSGHETGIAISVAAVALGAKVLERHITLDKTWKGSDHSASLEPGELAELVRSVRLVERALGSPTKQLLPCEMACNEKLGKSVVAKVKIPEGTILTMDMLTVKVGEPKGYPPEDIFNLVGKKVLVTVEEDDTIMEELVDNHGKKIKS [NANS]”: the “solubility in G1/S (log2)” value in the series with HeLa Kyoto [1] was determined as 0.172. The melting temperature turned out to be 53 °C in the series on HeLa Kyoto [2] (cell cycle stage: G1/S) and 52.3 °C in the series on HeLa Kyoto [2] (cell cycle stage: mitosis). In addition, the “solubility change mitosis (log2)” value with HeLa Kyoto [3] is -0.108. Moreover, the values for the thermal stability score with HeLa Kyoto [4] (setting [5]) and in the series on HeLa Kyoto [4] (cell cycle stage: mitosis) were -1.59 and -2.55, respectively.

With “MPLFFRKRKPSEEARKRLEYQMCLAKEAGADDILDISKCELSEIPFGAFATCKVLQKKVLIVHTNHLTSLLPKSCSLLSLATIKVLDLHDNQLTALPDDLGQLTALQVLNVERNQLMQLPRSIGNLTQLQTLNVKDNKLKELPDTVGELRSLRTLNISGNEIQRLPQMLAHVRTLEMLSLDASAMVYPPREVCGAGTAAILQFLCKESGLEYYPPSQYLLPILEQDGIENSRDSPDGPTDRFSREELEWQNRFSDYEKRKEQKMLEKLEFERRLELGQREHTQLLQQSSSQKDEILQTVKEEQSRLEQGLSEHQRHLNAERQRLQEQLKQTEQNISSRIQKLLQDNQRQKKSSEILKSLENERIRMEQLMSITQEETESLRRRDVASAMQQMLTESCKNRLIQMAYESQRQNLVQQACSSMAEMDERFQQILSWQQMDQNKAISQILQESAMQKAAFEALQVKKDLMHRQIRSQIKLIETELLQLTQLELKRKSLDTESLQEMISEQRWALSSLLQQLLKEKQQREEELREILTELEAKSETRQENYWLIQYQRLLNQKPLSLKLQEEGMERQLVALLEELSAEHYLPIFAHHRLSLDLLSQMSPGDLAKVGVSEAGLQHEILRRVQELLDAARIQPELKPPMGEVVTPTAPQEPPESVRPSAPPAELEVQASECVVCLEREAQMIFLNCGHVCCCQQCCQPLRTCPLCRQDIAQRLRIYHSS [LRSAM1]”, the “solubility in G1/S (log2)” value in the series with HeLa Kyoto [1] turned out to be 0.149. Also, the melting temperature in the series with HeLa Kyoto [2] (cell cycle stage: G1/S) came out at 51 °C; in the series with HeLa Kyoto [2] (cell cycle stage: mitosis) it was 50.9 °C. In addition, the “solubility change mitosis (log2)” value in the series with HeLa Kyoto [3] was -0.0589. The thermal stability score amounted to 0.0283 in the series on HeLa Kyoto [4] (setting [5]) and 0.57 with HeLa Kyoto [4] (cell cycle stage: mitosis).

Values taken from the supplement of paper PMC5998384.
